In article PMC8044209:

Key:
[1] = target: Med15 ABD1 (yeast) (UniProt P19659); assay: ITC; Gal4 AD in the syringe (1.11 mM), Med15 domain in the cell (ABD1 0.102 mM; ABD2 0.11 mM); 22 °C; 20 mM KH2PO4 pH 7.5, 200 mM KCl; single binding site model
[2] = target: Med15 ABD2 (yeast) (UniProt P19659); assay: as above
[3] = target: Gal4 AD (residues 828–881) labeled with Oregon Green 488 (yeast) (UniProt P04386); assay: fluorescence polarisation; Oregon Green 488-labelled Gal4 AD; 15 concentrations of Med15 spanning 0–250 μM; 22 °C; 20 mM KH2PO4 pH 7.5, 200 mM KCl; one-site total binding model
[4] = target: Gal4 AD (Gal4 residues 828–881) (yeast) (UniProt P04386); assay: NMR titration; (1H,15N)- and (1H,13C)-HSQC titrations; unlabeled Gal4 AD or ABD added to ~200 μM 13C,15N-labelled AD or ABD; 25 °C; 20 mM sodium phosphate, 150 mM NaCl, 0.1 mM EDTA, 5 mM DTT, pH 6.5
[5] = target: Gcn4 cAD (Saccharomyces cerevisiae) (UniProt P03069); assay: FP; conditions: cited from earlier work
[6] = target: Gcn4 nAD (Saccharomyces cerevisiae) (UniProt P03069); assay: FP; conditions: cited from earlier work
[7] = target: Gcn4 tAD (Saccharomyces cerevisiae) (UniProt P03069); assay: FP; conditions: cited from earlier work

| Kd [3] | Substance | Kd [5] | Kd [6] | Kd [7] | also measured |
| --- | --- | --- | --- | --- | --- |
| – | Gal4 AD (Gal4 residues 828–881) (from UniProt P04386 828-881) (domain or fragment) | – | – | – | Kd [1]: 9.2 µM; Kd [2]: 35 µM |
| 2.04 µM | Med15 158–651 Δ239–272, Δ373–483 (ABD123) (from UniProt P19659 158-651) (domain or fragment) | – | – | – | – |
| 16.2 µM | Med15 484–651 (ABD3) (from UniProt P19659 484-651) (domain or fragment) | – | – | – | – |
| 9.24 µM | Med15 ABD1 (from UniProt P19659 158-238) (domain or fragment) | – | – | – | exchange rate [4]: > 250 s⁻¹; lifetime of the bound state [4]: < 4 ms |
| – | Med15 ABD1 (from UniProt P19659) | 2.5 µM | 3.3 µM | 2.66 µM | – |
| 98 µM | Med15 ABD2 (from UniProt P19659 277-368) (domain or fragment) | – | – | – | – |
| – | Med15 ABD2 (from UniProt P19659) | 147 µM | 21.8 µM | 19.5 µM | – |
| – | Med15 ABD3 (from UniProt P19659) | 13.9 µM | 2.6 µM | 4.4 µM | – |
| – | Med15 ABD123 (from UniProt P19659) | – | 0.36 µM | – | – |
